Data taken from US11034759B2, “Humanized M-CSF specific monoclonal antibodies, kits, and uses thereof” (NOVARTIS VACCINES AND DIAGNOSTICS, INC., priority 2004, dated 2021).

T1: MCSF (Homo sapiens, UniProt P09603)
T1 sequence (P09603 33-255 limits assumed): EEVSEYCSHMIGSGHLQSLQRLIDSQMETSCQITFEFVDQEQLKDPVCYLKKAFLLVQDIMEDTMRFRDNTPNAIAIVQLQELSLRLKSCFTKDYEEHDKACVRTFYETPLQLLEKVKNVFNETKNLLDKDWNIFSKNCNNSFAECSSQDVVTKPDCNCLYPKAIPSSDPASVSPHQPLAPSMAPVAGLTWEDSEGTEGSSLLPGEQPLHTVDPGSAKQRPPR


Legend:
MCSF [1] = biological target: T1, MCSF; test: M-NFS-60 proliferation assay, neutralizing activity (Example 14); type: cell-based; conditions: Table 12; relative IC50, M-NFS-60 proliferation, 10 ng/ml M-CSF, 72 hours
Source text: To test the neutralizing activity of M-CSF antibodies, a proliferation assay of M-NFS-60 cell line was used (American Type Culture Collection, Accession No. CRL-1838, available from ATCC in Rockville, Md., USA, derived from a myologenous leukemia induced with the Cas-Br.MuLV wild mouse ecotropic retrovirus. The cell line responds to both interleukin 3 and M-CSF and contains a truncated c-myb proto-oncogene caused by the integration of a retrovirus). Proliferation of M-NFS-60 requires active M-CSF in a dose-dependent fashion. In the assay, M-NFS-60 cells were washed and plated in RPIM1640 medium with 10% FBS and 1% Pen/Strep. […] Cells were incubated at 37° C. under 5% CO2 for 72 hours before cell numbers were quantified by CellTiter Glo assay (Promega). […] The IC50 of each antibody was analyzed by curve fit.
The assay was repeated using human MCSF in serum, MDA231 conditioned medium (which contains M-CSF), cynomologous monkey MCSF in serum, and cynomologous monkey recombinant MCSF. The results are presented in FIGS. 25 (recombinant MCSF), 26 (human MCSF in serum) and 27 (MDA231 conditioned medium) as the fluorescent reading from CellTiter Glo assay, which is linear with cell number. […]

MCSF [2] = biological target: T1, MCSF; test: Recognition of M-CSF under reducing and non-reducing conditions; type: binding; conditions: 0.1 μg M-CSF
Experimental: Accordingly, the anti-M-CSF antibodies were tested against 0.1 μg M-CSF under reducing as well as non-reducing conditions.

MCSF [3] = biological target: T1, MCSF; test: Biacore analysis, antibody captured on anti-mouse Fc chip, MCSF flowed over; type: binding; conditions: Table 8, 25° C., 1:1 interaction model
Experimental: Binding properties of the aforementioned antibodies were analyzed using Biacore analyses. […] The aforementioned antibodies were then captured on the anti-mouse Fc/CM5 biosensor chip at 1.5 μg/ml for 3 min at 2 μl/min. MCSF was flowed over the modified biosensor surface at varying concentrations (Rmax ˜15). Test antibodies and antigen were diluted in 0.01 M HEPES pH 7.4, 0.15 M NaCL, 3 mM EDTA, 0.005% Surfactant P20 (HBS-EP). All experiments were performed at 25° C. Kinetic and affinity constants were determined using Biaevaluation software (Biacore) with a 1:1 interaction model/global fit.

MCSF [4] = biological target: T1, MCSF; test: Biacore analysis, M-CSF immobilized, intact Mab or Fab flowed over (Example 11); type: binding; conditions: Table 9, 25° C., 1:1 interaction model
Experimental: Specifically, M-CSF was immobilized onto CMS biosensor chip via amine coupling. 0.05 μg/ml M-CSF in 10 mM Na Acetate pH 4.0 was injected at 1 μl/min for 5 minutes to achieve RL=6-12 RU. Test antibody (or Fab fragment) were flowed over the modified biosensor surface at varying concentrations. Test antibodies were diluted in 0.01 M HEPES pH 7.4, 0.15 M NaCL, 3 mM EDTA, 0.005% Surfactant P20 (HBS-EP) and all experiments were done at 25° C. Kinetic and affinity constants were determined using Biaevaluation software (Biacore) with a 1:1 interaction model/global fit.

| Molecule | IC50 Fold Loss (MCSF [1]) | Form of M-CSF recognized (MCSF [2]) | Ka (MCSF [3]) [M⁻¹ s⁻¹] | Kd (MCSF [3]) [s⁻¹] | Ka (MCSF [4]) [M⁻¹ s⁻¹] | Kd (MCSF [4]) [s⁻¹] |
| --- | --- | --- | --- | --- | --- | --- |
| heRX1-10.G4: Human Engineered RX1 construct 10 with IgG4 constant region; named only in Table 12 (antibody, left off: a dimerising Fc or GST) heavy: QVQLQESGPGLVKPSQTLSLTCTVSDYSITSDYAWNWIRQFPGKGLEWMGYISYSGSTSYNPSLKSRITISRDTSKNQFSLQLNSVTAADTAVYYCASFDYAHAMDYWGQGTTVTVSS light: DIVLTQSPAFLSVTPGEKVTFTCQASQSIGTSIHWYQQKTDQAPKLLIKYASESISGIPSRFSGSGSGTDFTLTISSVEAEDAADYYCQQINSWPTTFGGGTKLEIKRT | No loss |  |  |  |  |  |
| 5H4: MCSF-specific murine antibody 5H4 (SEQ ID NOs: 10 and 11) (antibody, listed as Mus musculus) heavy: EIQLQQSGPELVKTGTSVKISCKASGYSFTGYFMHWVKQSHGKSLEWIGYISCYNGDTNYNQNFKGKATFTVDTSSSTAYMQFNSLTSEDSAVYYCAREGGNYPAYWGQGTLVTVSAAKTTPPSVYPLAPGSAAQTNSMVTLGCLVKGYFPEPVTVTWNSGSLSSGVHTFPAVLQSDLYTLSSSVTVPSSTWPSETVTCNVAHPASSTKVDKKIVPRDCGCKPCICTVPEVSSVFIFPPKPKDVLTITLTPKVTCVVVDISKDDPEVQFSWFVDDVEVHTAQTQPREEQFNSTFRSVSELPIMHQDWLNGKEFKCRVNSAAFPAPIEKTISKTKGRPKAPQVYTIPPPKEQMAKDKVSLTCMITDFFPEDITVEWQWNGQPAENYKNTQPIMDTDGSYFVYSKLNVQKSNWEAGNTFTCSVLHEGLHNHHTEKSLSHSPGK light: DIVMTQSHKFMSTSVGDRVTITCKASQNVGTAVTWYQQKPGQSPKLLIYWTSTRHAGVPDRFTGSGSGTDFTLTISDVQSEDLADYFCQQYSSYPLTFGAGTKLELKRADAAPTVSIFPPSSEQLTSGGASVVCFLNNFYPKDINVKWKIDGSERQNGVLNSWTDQDSKDSTYSMSSTLTLTKDEYERHNSYTCEATHKTSTSPIVKSFNRNEC |  | Only the non-reduced form of M-CSF was recognized | 594000 | 0.00177 | 127000 | 0.00126 |
